From the nanobody polyreactivity screen of Harvey et al. (2022)

Experiment: yeast display, Sf9 membrane polyspecificity reagent, FACS + sequencing; frameworks hold sequencing errors
In short: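 Galactose induction of a Saccharomyces cerevisiae BJ5465 synthetic nanobody display library ran 36–48 hours. The cells were then stained for 1 hour at 4 °C with 10% biotinylated, detergent-solubilized Sf9 membrane reagent, pulled down on streptavidin microbeads and FACS-sorted into low and high (top ~1%) gates on expression and reagent-binding fluorescence. Labels for polyreactivity follow the gate of origin.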

Sequence	polyreactivity (PSR sort gate)
QVQLVESGGGLVQAGGSLRLSCAASGITFYRYALGWYRQAPGKERELVAAISSSGGSTYYADSVKGRFTISRDNAKNTVYLQMNRLKPEDTAVYYCNAYYSVEYYYWGQGTQVTVSS	high polyreactivity
QVQLVESGGGLVQAGGSLRLSCAASGITFYRYAMGWYRPAPGKERELVAAISSRGGRTYYADSVKGRFTISRDNEKNTVYLQMNSLKPEDTGVYYCAKGGIVGSTLEYDYWGQGTQVTVSS	high polyreactivity
QVQLVESGGGLVQAGGSLRLSCAASGITFYRYAMGWYRQAPGKERELVAAISWSGGSTYYADSVKGRFTFSRDNAKNTVYLQMNSLKPEDTAVYYCNKYIRYPFKRYGYWGQGTQVTLSS	high polyreactivity
QVQLVESGGGLVQAGGSLRLSCAASGITFYRYAMGWYRQAPGKERELVAAITGSGDSTYYADSVKGRFTISRDNAKNTVYLQMNSLKPEDTAVYYCNTDYGRRYDYWGQGTQVTVSS	high polyreactivity
QVQLVESGGGLVQAGGSLRLSCAASGITFYRYAMGWYRQAPGKERELVAAITRSVGRTYYADSVKGRFTISRDNAKNTVYLQMNSLKPEDTAVYYCAADSPYYRGDYYWGLGTQVTVSS	high polyreactivity
QVQLVESGGGLVQAGGSLRLSCAASGITFYRYVMGWYRQAPAKERELVAAITTGDSTSYADSVKGRFTISRDNAKNTVYLQMNSLKPEDTAVYYCAAVYYTALANYDYWGQGTQVTVSS	low polyreactivity
QVQLVESGGGLVQAGGSLRLSCAASGITFYSYAMGWYRQAPGKERELVAAITRGGSTYYADSVKGRFTISRDNAKNTVYLQMNSLKPEDTAVYYCAASPLGGYGYWGQGTQVTVSS	high polyreactivity
QVQLVESGGGLVQAGGSLRLSCAASGITFYVNAMGWYRQAPGKERELVAGIDSGGSTYYADSVKGRFTISRDNAKNTVYLQMNSLKPEDTAVYYCAARGSDYIRWYVGGRYGYWGQGTQVTVSS	low polyreactivity
QVQLVESGGGLVQAGGSLRLSCAASGITFYVNAMGWYRQAPGKERELVAVITFGGGSTYYADSVKGRFTISRDNAKNTVYLQMNSLKPEDTAVYYCAKDPTYSPYLPGPIFYYKEDYWGQGTQVTVSS	low polyreactivity
QVQLVESGGGLVQAGGSLRLSCAASGITFYVYAMGWYIPAPGKERELVAAINYDSGSTYYADSVKGRFTISRDNAKNTVYLQMNSLKPEDTAVYYCATDGVNPFYAYDYWGQGTQVTVSS	low polyreactivity
QVQLVESGGGLVQAGGSLRLSCAASGITFYVYAMGWYRQAPGKERELVAAISSGSSTYYADSVKGRFTISRDNAKNTVYLQMNSLKPEDTAVYYCAARYRKYLSEYWGQGTQVTVSS	high polyreactivity
QVQLVESGGGLVQAGGSLRLSCAASGITFYVYAMGWYRQAPGKERELVAAISSGSSTYYSDSVKGRFTISRDNAKNTVYLQMNSLKPEDTAVYYCAARYRKYLSEYWGQGTQVTVSS	high polyreactivity
QVQLVESGGGLVQAGGSLRLSCAASGITFYWYAMGWYRQAPGKERELVASITGNGGGTSYADSVKGRFTISRDNAKNTVYLQMNSLKPEDTAVYYCNTSVGGKEYDSWGQGTQVTVSS	low polyreactivity
QVQLVESGGGLVQAGGSLRLSCAASGITFYYYAMGWYRQAPGKERELVAAISFRGGSTYYADSVKGRFTISRDNAKNTVYLQMNSLKPEDTAVYYCAAETSPSWYTWVTYDYWGQGTKVTVSS	high polyreactivity
QVQLVESGGGLVQAGGSLRLSCAASGITIGRNTMGWSRQAPRKERELVAAIDSGGNTYADSVKGRFSISRDNAMNTVYLQMNSLKPEDTAVYYCAVDGGEFSSYGFWGQGTQVTVSS	low polyreactivity
QVQLVESGGGLVQAGGSLRLSCAASGITINGYVMGWYRQAPGKERELVAAITSGARTYYADSVKGRFTISRDNAKNTVYLQMNSLKPEDTAVYYCAASIWLYRYYYWGQGTQVTVSS	high polyreactivity
QVQLVESGGGLVQAGGSLRLSCAASGITIVNYVMGWYRQAPGKERELVAAISIGGGTYYADSVKGRFTISRDNAKNTVYLQINSLKPEDTAVYYCNASYGGLSFYIGVYVTGYDYWGQGTQVTVSS	low polyreactivity
